Values quoted from earlier work as cited in PMC5152572.
Read-outs that look alike come from different tables or passages of the source.

Tests used:
[1] = molecular target: IL-1 receptor (Homo sapiens) (UniProt P14778)
[2] = molecular target: IL-1 receptor (Homo sapiens) (UniProt P14778); remark: listed apart in the source

Chain of UniProt P14778 (P14778 18-569): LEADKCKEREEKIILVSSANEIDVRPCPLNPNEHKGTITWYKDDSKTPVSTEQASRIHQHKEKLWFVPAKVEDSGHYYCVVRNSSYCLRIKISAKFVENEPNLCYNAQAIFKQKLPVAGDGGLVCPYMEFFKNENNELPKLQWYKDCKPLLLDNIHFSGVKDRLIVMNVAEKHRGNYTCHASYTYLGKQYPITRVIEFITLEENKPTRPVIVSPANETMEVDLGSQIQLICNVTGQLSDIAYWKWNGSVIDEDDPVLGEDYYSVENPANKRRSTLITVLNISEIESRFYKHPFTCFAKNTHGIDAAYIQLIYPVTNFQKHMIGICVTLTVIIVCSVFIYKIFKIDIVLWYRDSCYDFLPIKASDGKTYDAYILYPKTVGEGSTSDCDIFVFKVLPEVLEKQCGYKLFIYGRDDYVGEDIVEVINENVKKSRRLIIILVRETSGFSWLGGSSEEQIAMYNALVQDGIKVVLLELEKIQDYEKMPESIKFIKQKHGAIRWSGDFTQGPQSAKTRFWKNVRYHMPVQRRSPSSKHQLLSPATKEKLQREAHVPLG

Kd [1] [nM]	Kd [2] [nM]	Substance
4	–	pro-IL-1α (from UniProt P01583)
–	4.5	mature IL-1α mature (from UniProt P01583)
